Test results from the Human Domainome abundance scans (Beltran et al. 2025).

B1: Lysine-specific demethylase 2B, residues 656 to 722; numbered along this chain, Q8NHM5 (parent)
chain: LPHTAVCLVCGEAGKEDTVEEEEGKFNLMLMECSICNEIIHPGCLKIKESEGVVNDELPNCWECPKC

Variants of: B1
Assay: abundance fitness (aPCA) (normalised: wild type 0, dead -1); higher = more abundant; growth selection in yeast, the domain comes from the species named
Settings: Homo sapiens

Abundance fitness of substitutions, site by site:
V9: W -0.727
C10: A -0.37; E -0.329; F -0.868; G -0.277; H -0.828; I -1.04; K -0.124; L -1.01; M -0.613; N -0.259; P -0.517; Q -0.528; R -0.53; S -0.332; T -0.244; V -1; W -1.14; Y -0.66
G11: A -0.139; C -0.541; E -0.174; F -0.063; H -0.362; I -0.828; K 0.222; L 0.046; M -0.308; N -0.382; P -0.626; Q 0.129; R -0.051; S -0.113; T -0.354; W -0.533
E12: A -0.139; C -0.159; G 0.099; I -0.357; M 0.089; N -0.365; P -0.458; Q 0.078; R -0.016; T 0.045; V -0.303; W -0.224
A13: C -0.297; D -0.138; E 0.214; F 0.001; G 0.387; H -0.437; I 0.169; K 0.175; L -0.077; M 0.286; N -0.618; Q 0.471; R 0.443; S 0.177; T -0.022; V 0.085; W -0.228; Y -0.117
G14: A -0.428; C -1.04; E -0.395; F 0.104; I -0.418; K -0.229; L -0.508; M -0.172; N -0.003; Q -0.009; R 0.04; S -0.043; T -0.24; V -0.139; W -0.635
K15: A -0.525; C -0.611; D -1.01; E -0.175; F -0.368; G -0.206; H -0.65; I -0.305; L -0.154; M 0.12; N -0.751; P -0.609; Q -0.378; R -0.355; T -0.202; W 0.017; Y -0.583
E16: A -0.378; C -0.556; D -0.609; F -0.497; G -0.137; I -0.467; L -0.283; M -0.148; N -0.646; P -0.043; Q 0.022; R -0.148; S -0.204; T 0.167; V -0.258; W -0.638; Y -0.786
D17: A -0.173; C 0.039; E -0.069; F -0.017; G 0.104; H 0.099; I 0.068; K -0.174; L -0.369; M 0.392; N -0.035; P -0.168; Q -0.091; R -0.066; S -0.083; T -0.194; V -0.088; W -0.553; Y -0.315
T18: A -0.514; C -0.213; D -0.527; E -0.471; F -0.113; G -0.399; I -0.14; K -0.131; L -0.042; M -0.092; N -0.026; P -0.268; Q -0.062; R -0.188; V -0.569; W -0.331; Y -0.427
V19: A -0.049; D -0.459; E -0.469; F 0.151; G -0.193; H -0.24; I -0.131; L 0.017; M -0.067; R 0.056; S -0.151; T 0.013; W -0.429; Y -0.295
E20: A -0.046; C -0.105; D -0.276; F -0.343; G 0.035; H -0.176; L -0.146; P -0.081; Q -0.126; R 0.033; S -0.191; T -0.169; V -0.03; W -0.4
E21: A 0.107; C -0.068; D -0.028; F -0.559; G 0.12; H 0.264; I -0.566; K 0.022; L -0.284; M -0.062; P 0.033; Q -0.324; R 0.034; S 0.305; T 0.238; V 0.06; W -0.354; Y -0.035
E22: A 0.032; C -0.235; D -0.153; G -0.009; H -0.099; I -0.131; K 0.261; L -0.011; M 0.113; N -0.162; P -0.449; Q 0.086; S -0.01; T 0.171; V -0.049; W -0.308; Y -0.291
E23: A 0.004; C -0.193; D -0.016; F -0.058; G 0.13; K 0.157; L -0.354; M -0.088; N -0.05; P -0.342; Q -0.21; R -0.058; S 0.185; T -0.028; V 0.035; W -0.554; Y -0.36
G24: A 0.011; C -0.415; E 0.013; F 0.006; H 0.346; I -0.049; K -0.051; L 0.045; M 0.375; N 0.123; P -0.481; Q -0.123; R -0.121; S 0.15; T 0.019; V -0.021; W -0.526; Y 0.154
K25: A -0.242; C -0.329; F -0.602; G -0.33; H -0.31; I -0.453; L -0.441; M -0.238; N -0.118; P -0.787; R -0.324; S -0.348; T -0.432; V -0.525; W -0.859; Y -0.677
F26: A -0.204; D -0.4; E -0.176; G -0.278; H -0.343; I 0.028; K -0.257; L -0.297; M 0.062; N 0.053; P -0.165; Q -0.37; R -0.018; S -0.343; T -0.155; V -0.164; Y -0.234
N27: A 0.091; C -0.706; D -0.058; E -0.044; F -0.22; G -0.113; I -0.275; K 0.064; L -0.137; M 0.077; P -0.038; Q -0.206; R -0.036; S -0.085; T -0.169; V -0.472; Y -0.179
L28: A 0.124; C -0.16; D -0.068; F 0.081; G -0.076; H 0.118; K 0.152; M 0.364; N 0.476; P -0.162; R -0.148; S 0.068; T 0.241; W 0.039; Y -0.169
M29: A -0.297; C -0.026; D -0.552; E -0.362; G -0.247; H -0.31; I -0.652; L -0.274; P -0.267; Q -0.15; R 0.278; S 0.039; V -0.318; W -0.522
L30: A -0.35; C -0.232; F -0.778; G -0.209; H -0.603; K -0.034; M -0.373
